Results as given in the Immune Epitope Database (IEDB).
Blank lines part the entries; values can stand above or below the sequence they belong to.

How the values were obtained:
HLA-A*30:01 = test: IEDB peptide-MHC binding, purified MHC/competitive/radioactivity; filed as Kd, often an IC50 or EC50 that approximates it; ≥ and ≤ were set here for values at or beyond the usual limits of such assays
HLA-B*07:02 = test: IEDB peptide-MHC binding, purified MHC/direct/fluorescence; filed as Kd, often an IC50 or EC50 that approximates it; ≥ and ≤ were set here for values at or beyond the usual limits of such assays
HLA-A*02:01 [1] = test: IEDB peptide-MHC binding, purified MHC/competitive/fluorescence; ≥ and ≤ were set here for values at or beyond the usual limits of such assays
HLA-B*44:02 = test: IEDB peptide-MHC binding, purified MHC/competitive/radioactivity; filed as Kd, often an IC50 or EC50 that approximates it; ≥ and ≤ were set here for values at or beyond the usual limits of such assays
HLA-B*44:03 = test: as above
HLA-B*15:01 = test: IEDB peptide-MHC binding, purified MHC/direct/fluorescence; filed as Kd, often an IC50 or EC50 that approximates it; ≥ and ≤ were set here for values at or beyond the usual limits of such assays
HLA-A*26:01 = test: IEDB peptide-MHC binding, purified MHC/competitive/radioactivity; filed as Kd, often an IC50 or EC50 that approximates it; ≥ and ≤ were set here for values at or beyond the usual limits of such assays
HLA-A*03:01 = test: IEDB peptide-MHC binding, purified MHC/direct/fluorescence; filed as Kd, often an IC50 or EC50 that approximates it; ≥ and ≤ were set here for values at or beyond the usual limits of such assays
HLA-A*11:01 = test: as above; conditions: source organism: Homo sapiens
HLA-A*69:01 = test: as above
HLA-A*02:01 [2] = test: as above
HLA-A*01:01 = test: IEDB peptide-MHC binding, purified MHC/competitive/radioactivity; filed as Kd, often an IC50 or EC50 that approximates it; ≥ and ≤ were set here for values at or beyond the usual limits of such assays; conditions: source organism: Dengue virus 2 Jamaica/1409/1983
HLA-A*24:02 = test: as above; conditions: source organism: Dengue virus 1 Brazil/97-11/1997
HLA-A*33:01 = test: as above; conditions: source organism: SARS coronavirus Tor2
HLA-A*68:01 = test: as above; conditions: source organism: SARS coronavirus Tor2
HLA-A*31:01 = test: IEDB peptide-MHC binding, purified MHC/direct/fluorescence; filed as Kd, often an IC50 or EC50 that approximates it; ≥ and ≤ were set here for values at or beyond the usual limits of such assays; conditions: source organism: SARS-CoV1
HLA-A*02:02 = test: IEDB peptide-MHC binding, purified MHC/competitive/radioactivity; filed as Kd, often an IC50 or EC50 that approximates it; ≥ and ≤ were set here for values at or beyond the usual limits of such assays
HLA-A*02:03 = test: as above
HLA-A*02:06 = test: as above
[3] = source organism: Dengue virus 1 Brazil/97-11/1997
[4] = source organism: Vaccinia virus WR
[5] = source organism: Mycobacterium tuberculosis
[6] = source organism: Zaire ebolavirus
[7] = source organism: Sudan ebolavirus
[8] = source organism: Dengue virus 3 Martinique/1243/1999
[9] = source organism: Dengue virus 2 Jamaica/1409/1983
[10] = source organism: Mycobacterium avium 104
[11] = source organism: Dengue virus 4 Philippines/H241/1956
[12] = source organism: Giardia lamblia ATCC 50803
[13] = source organism: Mycobacterium tuberculosis str. Haarlem
[14] = source organism: Salmonella enterica subsp. enterica serovar Typhimurium
[15] = source organism: Bacillus thuringiensis
[16] = source organism: Dengue virus 2 Thailand/NGS-C/1944
[17] = source organism: SARS coronavirus Tor2

Sequence: RDKRSVALA
Kd (HLA-A*30:01; [3]): 1990 nM

Sequence: SAKNSWLNL
Kd (HLA-A*30:01; [4]): 0.574 nM

Sequence: RNRDQSNAL
Kd (HLA-B*07:02; [5]): 112 nM

Sequence: NLEHGLFPQ
IC50 (HLA-A*02:01 [1]; [6]): ≥ 304000 nM

Sequence: WVIILFQKA
IC50 (HLA-A*02:01 [1]; [7]): ≥ 341000 nM

Sequence: MENLLWKQI
Kd (HLA-B*44:02; [8]): 6.79 nM
Kd (HLA-B*44:03; [8]): 93.4 nM

Sequence: GLVRALTAF
Kd (HLA-B*15:01; source organism: Mycobacterium tuberculosis variant bovis BCG str. Pasteur 1173P2): 255 nM

Sequence: ELIDGISLG
Kd (HLA-A*26:01; source organism: Dengue virus 4 Dominica/814669/1981): 472 nM

Sequence: ENSSAMVQV
IC50 (HLA-A*02:01 [1]; [6]): ≥ 277000 nM

Kd (HLA-B*44:02; source organism: Homo sapiens): 5.4 nM
Sequence: SELFRSRLDSY

Sequence: QVNNLEEIC
IC50 (HLA-A*02:01 [1]; [6]): ≥ 112000 nM

Sequence: RMMASSMSQ
Kd (HLA-A*03:01; source organism: Bacillus cereus): ≥ 20000 nM

Sequence: RKKARSTPFN
Kd (HLA-A*30:01; [9]): 3820 nM

Kd (HLA-A*11:01): 12400 nM
Sequence: STEIGLLVG

Sequence: LLPGVAHSI
Kd (HLA-A*69:01; source organism: Amur virus): ≥ 20000 nM
Kd (HLA-A*02:01 [2]; source organism: Amur virus): 4.2 nM

Sequence: TTLATISTS
IC50 (HLA-A*02:01 [1]; [6]): 6620 nM

Sequence: IESALNDTW
Kd (HLA-B*44:02; [9]): 127 nM
Kd (HLA-B*44:03; [9]): 67.9 nM

Sequence: RVSVSAILL
Kd (HLA-A*30:01; [4]): 14.7 nM

Sequence: EAEPPFGDSY
Kd (HLA-A*01:01): 1770 nM
Kd (HLA-A*26:01; [9]): 1300 nM

Sequence: VYLPGRGGV
Kd (HLA-A*69:01; [10]): ≥ 20000 nM
Kd (HLA-A*02:01 [2]; [10]): ≥ 20000 nM

Sequence: KLSSLGLNAV
IC50 (HLA-A*02:01 [1]; source organism: Hepatitis C virus subtype 1b): 25 nM

Sequence: ETLGEKWKNR
Kd (HLA-A*26:01; source organism: Dengue virus 2 Peru/IQT2913/1996): 14600 nM

Sequence: ETLETLLLLT
Kd (HLA-A*26:01; [9]): 17400 nM

Sequence: IKKPDGSEC
IC50 (HLA-A*02:01 [1]; [7]): ≥ 318000 nM

Sequence: KVRKIISKI
Kd (HLA-A*30:01; [4]): 27.2 nM

Sequence: QLAKAIITP
IC50 (HLA-A*02:01 [1]; source organism: Vaccinia virus Copenhagen): ≥ 96300 nM

Sequence: RASGSYISG
Kd (HLA-A*30:01; [4]): 589 nM

Sequence: KTKRYLPAI
Kd (HLA-A*30:01; [9]): 100 nM

Sequence: DVRNDMISY
Kd (HLA-A*26:01; [11]): 431 nM

Sequence: LLWAFAHRQ
Kd (HLA-A*69:01; [5]): ≥ 20000 nM
Kd (HLA-A*02:01 [2]; [5]): 551 nM

Sequence: KCLNIMLGK
Kd (HLA-A*30:01; source organism: Mammarenavirus brazilense): 24.9 nM

Sequence: KVVRLTPQV
Kd (HLA-A*30:01; [4]): 178 nM

Sequence: PECPSASRAW
Kd (HLA-B*44:02; [8]): 1120 nM

Sequence: KYKQSNTNK
Kd (HLA-A*30:01; [4]): 103 nM

Sequence: GMSLLEYGV
Kd (HLA-A*69:01; [12]): ≥ 20000 nM
Kd (HLA-A*02:01 [2]; [12]): 3.5 nM

Sequence: RMGAAVTPY
Kd (HLA-A*03:01; [13]): 254 nM
Kd (HLA-B*15:01; [13]): 98.8 nM

Sequence: EFFLMVLLI
Kd (HLA-A*24:02): ≥ 40100 nM

Sequence: WLKGNISPV
Kd (HLA-B*07:02; [14]): 3110 nM
Kd (HLA-A*69:01; [14]): 536 nM
Kd (HLA-A*02:01 [2]; [14]): 20.5 nM
Kd (HLA-B*15:01; [14]): 795 nM

Sequence: VLFDLDEDD
IC50 (HLA-A*02:01 [1]; [6]): 3740 nM

Sequence: ELGGGFGTL
Kd (HLA-A*69:01; [15]): 680 nM
Kd (HLA-A*02:01 [2]; [15]): 7000 nM

Sequence: EEYVDYMPVM
Kd (HLA-B*44:03; [11]): 869 nM

Sequence: GELCEDTMTY
Kd (HLA-B*44:03; [3]): 25 nM

Sequence: KVIQPRVEK
Kd (HLA-A*33:01): 7340 nM
Kd (HLA-A*68:01): 890 nM
Kd (HLA-A*31:01): 427 nM

Sequence: NEMVLLQMEN
Kd (HLA-B*44:02; [16]): 512 nM
Kd (HLA-B*44:03; [16]): 1440 nM

Sequence: LMQDCAIKA
Kd (HLA-A*69:01; [12]): ≥ 20000 nM
Kd (HLA-A*02:01 [2]; [12]): 82.1 nM

Sequence: WLMWFIISIV
Kd (HLA-A*02:02; [17]): 246 nM
Kd (HLA-A*02:03; [17]): 4.72 nM
Kd (HLA-A*02:06; [17]): 107 nM

Sequence: EEEEAGVLW
Kd (HLA-B*44:02; [9]): 84.7 nM
Kd (HLA-B*44:03; [9]): 162 nM

Sequence: SITPNNLNKI
Kd (HLA-A*02:02; [4]): 14900 nM
Kd (HLA-A*02:03; [4]): ≥ 70400 nM
Kd (HLA-A*02:06; [4]): ≥ 69800 nM

Sequence: GTSAAAYFV
Kd (HLA-A*02:02; [17]): 35.2 nM
Kd (HLA-A*02:03; [17]): 202 nM
Kd (HLA-A*02:06; [17]): 90.5 nM
